For series [1], the system named is MCF7. As to the kind of experiment: percentage of EdU-negative (G0-arrested) nuclei per well, 72 h; higher = more G0 arrest. Conditions: reference: sequence is the full UniProt precursor, the tested protein was the secreted form or ectodomain.
The test system of series [2] is hTERT-HMEC. Described as above. Conditions: reference: sequence is the full UniProt precursor, the tested protein was the secreted form or ectodomain.
Setting [3] is: protein concentration 0.0225 µM.
Where [4] appears, read: protein concentration 0.0357143 µM.
[5] abbreviates: protein concentration 0.357143 µM.

± gives the standard deviation of the averaged measurements.
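Also: secreted proteins added to cultured cells, EdU pulse at the end, nuclei found by Hoechst imaging, EdU status from nuclear versus surrounding ring intensity ratio, PBS as neutral control.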

For “MMPKHCFLGFLISFFLTGVAGTQSTHESLKPQRVQFQSRNFHNILQWQPGRALTGNSSVYFVQYKIMFSCSMKSSHQKPSGCWQHISCNFPGCRTLAKYGQRQWKNKEDCWGTQELSCDLTSETSDIQEPYYGRVRAASAGSYSEWSMTPRFTPWWETKIDPPVMNITQVNGSLLVILHAPNLPYRYQKEKNVSIEDYYELLYRVFIINNSLEKEQKVYEGAHRAVEIEALTPHSSYCVVAEIYQPMLDRRSQRSEERCVEIP [Q969J5]”, the “percentage of EdU-negative” value in series [1] (setting [3]) stood at 24.1 ± 0.85%; in series [1] (protein concentration 0.225 µM) it was 27.2 ± 3%; in series [2] (setting [3]), 4.89 ± 0.64%; in series [2] (protein concentration 0.225 µM) it was 5.48 ± 0.17%.
For “MMQKLLKCSRLVLALALILVLESSVQGYPTRRARYQWVRCNPDSNSANCLEEKGPMFELLPGESNKIPRLRTDLFPKTRIQDLNRIFPLSEDYSGSGFGSGSGSGSGSGSGFLTEMEQDYQLVDESDAFHDNLRSLDRNLPSDSQDLGQHGLEEDFML” the same measures were 24.3 ± 3.3%, 26 ± 1.7%, 5.29 ± 0.12% and 5.72 ± 0.97%.
For “MMRCCRRRCCCRQPPHALRPLLLLPLVLLPPLAAAAAGPNRCDTIYQGFAECLIRLGDSMGRGGELETICRSWNDFHACASQVLSGCPEEAAAVWESLQQEARQAPRPNNLHTLCGAPVHVRERGTGSETNQETLRATAPALPMAPAPPLLAAALALAYLLRPLA [Q496H8]” the same measures were 24.2 ± 1.7%, 23.3 ± 0.52%, 4.98 ± 0.36% and 5.04 ± 1.6%.
Consider “MMRTCVLLSAVLWCLTGVQCPRFTLFNKKGFIYGKTGQPDKIYVELHQNSPVLICMDFKLSKKEIVDPTYLWIGPNEKTLTGNNRINITETGQLMVKDFLEPLSGLYTCTLSYKTVKAETQEEKTVKKRYDFMVFAYREPDYSYQMAVRFTTRSCIGRYNDVFFRVLKKILDSLISDLSCHVIEPSYKCHSVEIPEHGLIHELFIAFQVNPFAPGWKGACNGSVDCEDTTNHNILQARDRIEDFFRSQAYIFYHNFNKTLPAMHFVDHSLQVVRLDSCRPGFGKNERLHSNCASCCVVCSPATFSPDVNVTCQTCVSVLTYGAKSCPQTSNKNQQYED [Q6X784]”, for which the “percentage of EdU-negative” value in series [1] (setting [4]) turned out to be 24.6 ± 1.8%; in series [1] (setting [5]), 28.8 ± 3.5%; in series [2] (setting [4]), 4.95 ± 0.69%; in series [2] (setting [5]) it was 6.88 ± 0.23%.
“MMSFLLGAILTLLWAPTAQAEVLLQPDFNAEKFSGLWYVVSMASDCRVFLGKKDHLSMSTRAIRPTEEGGLHVHMEFPGADGCNQVDAEYLKVGSEGHFRVPALGYLDVRIVDTDYSSFAVLYIYKELEGALSTMVQLYSRTQDVSPQALKSFQDFYPTLGLPKDMMVMLPQSDACNPESKEAP [Q6UWW0]”: the “percentage of EdU-negative” value in series [1] (setting [3]) was found to be 26.2 ± 2.2%; in series [1] (protein concentration 0.225 µM), 25.9 ± 0.71%; in series [2] (setting [3]), 5.79 ± 0.094%; in series [2] (protein concentration 0.225 µM) it was 6.89 ± 0.15%.
For “MMSFVQKGSWLLLALLHPTIILAQQEAVEGGCSHLGQSYADRDVWKPEPCQICVCDSGSVLCDDIICDDQELDCPNPEIPFGECCAVCPQPPTAPTRPPNGQGPQGPKGDPGPPGIPGRNGDPGIPGQPGSPGSPGPPGICESCPTGPQNYSPQYDSYDVKSGVAVGGLAGYPGPAGPPGPPGPPGTSGHPGSPGSPGYQGPPGEPGQAGPSGPPGPPGAIGPSGPAGKDGESGRPGRPGERGLPGPPGIKGPAGIPGFPGMKGHRGFDGRNGEKGETGAPGLKGENGLPGENGAPGPMGPRGAPGERGRPGLPGAAGARGNDGARGSDGQPGPPGPPGTAGFPGSPGAKGEVGPAGSPGSNGAPGQRGEPGPQGHAGAQGPPGPPGINGSPGGKGEMGPAGIPGAPGLMGARGPPGPAGANGAPGLRGGAGEPGKNGAKGEPGPRGERGEAGIPGVPGAKGEDGKDGSPGEPGANGLPGAAGERGAPGFRGPAGPNGIPGEKGPAGERGAPGPAGPRGAAGEPGRDGVPGGPGMRGMPGSPGGPGSDGKPGPPGSQGESGRPGPPGPSGPRGQPGVMGFPGPKGNDGAPGKNGERGGPGGPGPQGPPGKNGETGPQGPPGPTGPGGDKGDTGPPGPQGLQGLPGTGGPPGENGKPGEPGPKGDAGAPGAPGGKGDAGAPGERGPPGLAGAPGLRGGAGPPGPEGGKGAAGPPGPPGAAGTPGLQGMPGERGGLGSPGPKGDKGEPGGPGADGVPGKDGPRGPTGPIGPPGPAGQPGDKGEGGAPGLPGIAGPRGSPGERGETGPPGPAGFPGAPGQNGEPGGKGERGAPGEKGEGGPPGVAGPPGGSGPAGPPGPQGVKGERGSPGGPGAAGFPGARGLPGPPGSNGNPGPPGPSGSPGKDGPPGPAGNTGAPGSPGVSGPKGDAGQPGEKGSPGAQGPPGAPGPLGIAGITGARGLAGPPGMPGPRGSPGPQGVKGESGKPGANGLSGERGPPGPQGLPGLAGTAGEPGRDGNPGSDGLPGRDGSPGGKGDRGENGSPGAPGAPGHPGPPGPVGPAGKSGDRGESGPAGPAGAPGPAGSRGAPGPQGPRGDKGETGERGAAGIKGHRGFPGNPGAPGSPGPAGQQGAIGSPGPAGPRGPVGPSGPPGKDGTSGHPGPIGPPGPRGNRGERGSEGSPGHPGQPGPPGPPGAPGPCCGGVGAAAIAGIGGEKAGGFAPYYGDEPMDFKINTDEIMTSLKSVNGQIESLISPDGSRKNPARNCRDLKFCHPELKSGEYWVDPNQGCKLDAIKVFCNMETGETCISANPLNVPRKHWWTDSSAEKKHVWFGESMDGGFQFSYGNPELPEDVLDVHLAFLRLLSSRASQNITYHCKNSIAYMDQASGNVKKALKLMGSNEGEFKAEGNSKFTYTVLEDGCTKHTGEWSKTVFEYRTRKAVRLPIVDIAPYDIGGPDQEFGVDVGPVCFL” the same measures were 26.55 ± 0.19%, 27.4 ± 1.2%, 4.96 ± 0.66% and 6.99 ± 0.87%.
Consider “MMVVLLGATTLVLVAVAPWVLSAAAGGKNLKSPQKVEVDIIDDNFILRWNRSDESVGNVTFSFDYQKTGMDNWIKLSGCQNITSTKCNFSSLKLNVYEEIKLRIRAEKENTSSWYEVDSFTPFRKAQIGPPEVHLEAEDKAIVIHISPGTKDSVMWALDGLSFTYSLVIWKNSSGVEERIENIYSRHKIYKLSPETTYCLKVKAALLTSWKIGVYSPVHCIKTTVENELPPPENIEVSVQNQNYVLKWDYTYANMTFQVQWLHAFLKRNPGNHLYKWKQIPDCENVKTTQCVFPQNVFQKGIYLLRVQASDGNNTSFWSEEIKFDTEIQAFLLPPVFNIRSLSDSFHIYIGAPKQSGNTPVIQDYPLIYEIIFWENTSNAERKIIEKKTDVTVPNLKPLTVYCVKARAHTMDEKLNKSSVFSDAVCEKTKPGNTSKIWLIVGICIALFALPFVIYAAKVFLRCINYVFFPSLKPSSSIDEYFSEQPLKNLLLSTSEEQIEKCFIIENISTIATVEETNQTDEDHKKYSSQTSQDSGNYSNEDESESKTSEELQQDFV”, for which the “percentage of EdU-negative” value in series [1] (setting [4]) is 23.4 ± 0.79%; in series [1] (setting [5]), 31.7 ± 1.5%; in series [2] (setting [4]) it was 4.55 ± 0.7%; in series [2] (setting [5]), 5.5 ± 0.82%.

These data come from the supplement of paper PMC11316812.
